Test results published in paper PMC11756183.

Assay: IP and western blot in MSC-T
Details: glycan lost; control: wild-type GPNMB (MSC-T/OEG)

B1: GPNMB (Glycoprotein non-metastatic melanoma protein B): N249Q (protein)
parent chain: MESLCGVLGFLLLAAGLPLQAAKRFRDVLGHEQYPDHMREHNQLRGWSSDENEWDEHLYPVWRRGDGRWKDSWEGGRVQAVLTSDSPALVGSNITFVVNLVFPRCQKEDANGNIVYEKNCRNDLGLTSDLHVYNWTAGADDGDWEDGTSRSQHLRFPDRRPFPRPHGWKKWSFVYVFHTLGQYFQKLGRCSARVSINTVNLTAGPQVMEVTVFRRYGRAYIPISKVKDVYVITDQIPVFVTMSQKNDRNLSDEIFLRDLPIVFDVLIHDPSHFLNDSAISYKWNFGDNTGLFVSNNHTLNHTYVLNGTFNLNLTVQTAVPGPCPPPSPSTPPPPSTPPSPPPSPLPTLSTPSPSLMPTGYKSMELSDISNENCRINRYGYFRATITIVEGILEVSIMQIADVPMPTPQPANSLMDFTVTCKGATPMEACTIISDPTCQIAQNRVCSPVAVDGLCLLSVRRAFNGSGTYCVNFTLGDDASLALTSTLISIPGKDPDSPLRAVNGVLISIGCLAVLVTMVTILLYKKHKAYKPIGNCPRNTVKGKGLSVLLSHAKAPFFRGDQEKDPLLQDKPRTL
expression_or_secretion: decreases
